Target: cell-surface nucleolin (NCL) (UniProt P19338)
Experiment: competition
Details: MST: 300 nM FAM-aptamer, NCL 1.95 nM-4 uM, binding buffer not specified, 25 C, 15 min; AP1-AP6 and Mut folded in 100 mM KCl, 10 mM K3PO4 pH 7.0; AS1411 in …; scale: % decrease of anti-NCL fluorescence at 4 uM

Sequence of cell-surface nucleolin (NCL) (P19338 whole entry): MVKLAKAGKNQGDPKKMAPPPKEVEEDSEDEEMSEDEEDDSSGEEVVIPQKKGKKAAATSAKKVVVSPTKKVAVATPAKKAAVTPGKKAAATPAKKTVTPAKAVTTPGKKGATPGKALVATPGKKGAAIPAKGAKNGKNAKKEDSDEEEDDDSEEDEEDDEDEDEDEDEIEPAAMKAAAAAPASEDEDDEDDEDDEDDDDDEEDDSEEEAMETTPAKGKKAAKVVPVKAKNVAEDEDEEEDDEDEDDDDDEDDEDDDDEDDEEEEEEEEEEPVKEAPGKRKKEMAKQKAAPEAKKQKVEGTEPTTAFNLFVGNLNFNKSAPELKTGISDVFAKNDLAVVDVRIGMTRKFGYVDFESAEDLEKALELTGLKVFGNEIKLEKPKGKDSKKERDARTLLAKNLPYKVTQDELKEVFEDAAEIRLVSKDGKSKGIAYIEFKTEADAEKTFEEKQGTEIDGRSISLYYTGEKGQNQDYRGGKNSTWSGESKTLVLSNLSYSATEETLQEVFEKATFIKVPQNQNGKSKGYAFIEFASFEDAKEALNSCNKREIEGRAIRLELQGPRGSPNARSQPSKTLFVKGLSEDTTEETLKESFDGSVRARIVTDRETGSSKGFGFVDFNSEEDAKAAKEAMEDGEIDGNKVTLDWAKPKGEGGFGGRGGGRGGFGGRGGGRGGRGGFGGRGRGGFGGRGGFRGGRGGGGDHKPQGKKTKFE

GUUAGGGUUUGGGAUUG [AP1]
binding signal: 50

Reference: PMC12650828
